According to patent US20240115745A1 (3B PHARMACEUTICALS, published 2024):
*1 amine or outer side, *2 acyl side, *3 side chain or, on linkers, in order; H or OH if unused. Bridges are numbered along the chain shown (N, C = ends). Primed or numbered codes have the meaning given here. [ ]: non-standard residue; d: D form. The star is where a group is joined. mli = maleimide cyclization element: 3,4-maleimide inserted symmetrically, forming a vinyl thioether with each Cys sulfur; mli(Me)″ = N-methyl maleimide cyclization element, vinyl thioethers with both Cys, CN1C(=O)C([*:1])=C([*:2])C1=O; mli(DOTA-Eda) = 3,4-N-(DOTA-aminoethyl)-maleimide bridging two Cys S atoms as vinyl thioethers; Ttds = 1,13-diamino-4,7,10-trioxatridecan-succinamic acid, NCCCOCCOCCOCCCNC(=O)CCC(=O)*; mli(DOTA-Ttd) = 3,4-N-(DOTA-Ttd)-maleimide bridging two Cys S atoms as vinyl thioethers; mli(NODAGA-Ttd) = mli with NODAGA attached to the maleimide nitrogen via a Ttd linker; mli(N4Ac-Ttd) = mli with N4Ac attached to the maleimide nitrogen via a Ttd linker; mli(Me) = N-methyl maleimide cyclization element, CN1C(=O)C([*:1])=C([*:2])C1=O; N4Ac = 6-carboxy-1,4,8,11-tetraazaundecane, NCCNCC(CNCCN)C(=O)*; DOTA = O=C(O)CN1CCN(CC(=O)O)CCN(CC(=O)*)CCN(CC(=O)O)CC1; NODAGA = O=C(O)CN1CCN(CC(=O)O)CCN(C(CCC(=O)*)C(=O)O)CC1; O2Oc = 3,6-dioxaoctanoic acid; Nle = CCCC[C@H](N)C(=O)O; Hexanoyl = CCCCCC(=O)*

Legend:
[1] = target: T1, fibroblast activation protein (FAP) on FAP-expressing human WI-38 fibroblasts (human, UniProt Q12884 1-760); experiment: competitive FACS on WI-38 cells vs 3 nM Cy5-labeled probe; A = pIC50 >7.0
T1 construct: Endogenous FAP on WI-38 cells (ECACC) in the FACS assay; also called human FAP
Experimental: FAP-expressing human WI-38 fibroblasts (ECACC) were cultured in EMEM including 15% fetal bovine serum, 2 mM L-Glutamine and 1% Non-essential amino acids. Cells were detached with Accutase (Biolegend, #BLD-423201) and washed in FACS buffer (PBS including 1% FBS). Cells were diluted in FACS buffer to a final concentration of 100.000 cells per ml and 200 μl of the cell suspension are transferred to a u-shaped non-binding 96-well plate (Greiner). […] Cell were washed twice with FACS buffer and resuspended in 200 μl FACS buffer. Cells were analyzed in an Attune NxT flow cytometer. Median fluorescence intensities (Cy5 channel) was calculated by Attune NxT software and plotted against peptide concentrations. Four parameter logistic (4PL) curve fitting and pIC50 calculations were performed using ActivityBase software.

[2] = target: Recombinant human FAP (R&D systems, #3715-SE) (human, UniProt Q12884 26-760); experiment: cell-based or functional assay

Row | pIC50 Category (FACS) [1] | pIC50 Category (Activity), FRET-based FAP protease activity assay [2] | Binder
1 | > 7 pIC50 | > 7 pIC50 | {DOTA-O2Oc}-[Nle]CPPTEFCDHFRD-NH2 (disulfide 2-8, By the running order it belongs to 1005) [compound DOTA-O2Oc-Nle-[Cys-Pro-Pro-Thr-Glu-Phe-Cys]-Asp-His-Phe-Arg-Asp-NH2 (1005)]
2 | > 7 pIC50 | > 7 pIC50 | {DOTA-Ttds}-[Nle]CPPTEFCDHFRD-NH2 (disulfide 2-8, By the running order it belongs to 1006) [compound DOTA-Ttds-Nle-[Cys-Pro-Pro-Thr-Glu-Phe-Cys]-Asp-His-Phe-Arg-Asp-NH2 (1006)]
3 | > 7 pIC50 | > 7 pIC50 | Hexanoyl-CPPTQFCDK(NODAGA)-NH2 (linker 1-7 via mli) [compound Hex-[Cys(mli)-Pro-Pro-Thr-Gln-Phe-Cys]-Asp-Lys(NODAGA)-NH2 (2023)]
4 | > 7 pIC50 | > 7 pIC50 | {DOTA-Ttds}-[Nle]CPPTQFCD-NH2 (disulfide 2-8) [compound DOTA-Ttds-Nle-[Cys-Pro-Pro-Thr-Gln-Phe-Cys]-Asp-NH2 (1008)]

Continued, binder first:

Row | Binder | pIC50 Category (FACS) [1] | pIC50 Category (Activity), FRET-based FAP protease activity assay [2]
5 | Hexanoyl-CPPTQFCD-NH2 (linker 1-7 via mli(DOTA-Ttd)) [compound Hex-[Cys(mli(DOTA-Ttd))-Pro-Pro-Thr-Gln-Phe-Cys]-Asp-NH2 (2017)] | > 7 pIC50 | > 7 pIC50
6 | Hexanoyl-CPPTQFCD-NH2 (linker 1-7 via mli(NODAGA-Ttd)) [compound Hex-[Cys(mli(NODAGA-Ttd))-Pro-Pro-Thr-Gln-Phe-Cys]-Asp-NH2 (2025)] | > 7 pIC50 | > 7 pIC50
7 | Hexanoyl-CPPTQFCD-NH2 (linker 1-7 via mli(N4Ac-Ttd)) [compound Hex-[Cys(mli(N4Ac-Ttd))-Pro-Pro-Thr-Gln-Phe-Cys]-Asp-NH2 (2026)] | > 7 pIC50 | > 7 pIC50
8 | Hexanoyl-CPPTQFCDK(N4Ac)-NH2 (linker 1-7 via mli) [compound Hex-[Cys(mli)-Pro-Pro-Thr-Gln-Phe-Cys]-Asp-Lys(N4Ac)-NH2 (2024)] | > 7 pIC50 | > 7 pIC50
9 | Hexanoyl-CPPTQFCDK(DOTA)-NH2 (linker 1-7 via mli(Me); SMILES CCCCCC(=O)N[C@H]1CSC2=C(SC[C@@H](C(=O)N[C@@H](CC(=O)O)C(=O)N[C@@H](CCCCNC(=O)CN3CCN(CC(=O)O)CCN(CC(=O)O)CCN(CC(=O)O)CC3)C(N)=O)NC(=O)[C@H](Cc3ccccc3)NC(=O)[C@H](CCC(N)=O)NC(=O)[C@H]([C@@H](C)O)NC(=O)[C@@H]3CCCN3C(=O)[C@@H]3CCCN3C1=O)C(=O)N(C)C2=O) [compound Hex-[Cys(mli(Me))-Pro-Pro-Thr-Gln-Phe-Cys]-Asp-Lys(DOTA)-NH2 (2015)] | > 7 pIC50 | > 7 pIC50
10 | {DOTA-Ttds}-[Nle]CPPTQFCD-NH2 (linker 2-8 via mli(Me)″) [compound DOTA-Ttds-Nle-[Cys(mli(Me))-Pro-Pro-Thr-Gln-Phe-Cys]-Asp-NH2 (2016)] | > 7 pIC50 | > 7 pIC50
11 | Hexanoyl-CPPTQFCD-NH2 (linker 1-7 via mli(DOTA-Eda)) [compound Hex-[Cys(mli(DOTA-Eda))-Pro-Pro-Thr-Gln-Phe-Cys]-Asp-NH2 (2018)] | > 7 pIC50 | > 7 pIC50
